According to PMC7419741:

How the values were obtained:
CCR9^QTY–Fc = CCR9^QTY–Fc (UniProt P51686); assay: MST; 5 nM NT647-labelled receptor-Fc against a gradient of ligand; 1x PBS, 10 mM DTT, arginine at different concentrations; Monolith NT.115 pico, 25°C; data from the early T-Jump period; Kd model (law of mass action)
CCL25 (Homo sapiens) = CCL25 (Homo sapiens) (UniProt O15444); conditions: cited from earlier work
IL8 (Homo sapiens) = IL8 (Homo sapiens) (UniProt P10145); conditions: cited from earlier work
Sequence of IL8 (Homo sapiens) (P10145 28-99): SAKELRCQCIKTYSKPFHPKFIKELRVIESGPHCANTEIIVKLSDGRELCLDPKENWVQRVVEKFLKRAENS

[1] = target: IL8 (dimer) (Homo sapiens) (UniProt P10145); assay: cell-based assay; conditions: cited from earlier work
Sequence of IL8 (dimer) (Homo sapiens) (P10145 28-99): as above

[2] = target: IL8 (monomer) (Homo sapiens) (UniProt P10145); assay: cell-based assay; conditions: cited from earlier work
Sequence of IL8 (monomer) (Homo sapiens) (P10145 28-99): as above

IFNγR1^QTY–Fc = assay: MST; 5 nM NT647-labelled receptor-Fc against a gradient of ligand; 1x PBS, 10 mM DTT, arginine at different concentrations; Monolith NT.115 pico, 25°C; data from the early T-Jump period; Kd model (law of mass action)
IFNγ (Homo sapiens) [3] = target: IFNγ (Homo sapiens) (UniProt P01579); assay: cell-based assay; conditions: cited from earlier work
Sequence of IFNγ (Homo sapiens) (P01579 24-161): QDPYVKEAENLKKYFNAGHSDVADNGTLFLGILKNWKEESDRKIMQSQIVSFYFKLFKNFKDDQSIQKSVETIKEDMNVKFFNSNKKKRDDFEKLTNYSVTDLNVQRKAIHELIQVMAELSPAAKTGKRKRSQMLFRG

IFNγ (Homo sapiens) [4] = target: IFNγ (Homo sapiens) (UniProt P01579); assay: SPR; conditions: cited from earlier work
IL4 (Homo sapiens) = IL4 (Homo sapiens) (UniProt P05112); assay: SPR; conditions: cited from earlier work
Sequence of IL4 (Homo sapiens) (P05112 25-153): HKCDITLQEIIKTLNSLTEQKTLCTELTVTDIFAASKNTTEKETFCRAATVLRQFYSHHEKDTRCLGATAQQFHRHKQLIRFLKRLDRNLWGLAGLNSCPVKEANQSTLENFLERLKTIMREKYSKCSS

IL10Rα^QTY–Fc = assay: MST; 5 nM NT647-labelled receptor-Fc against a gradient of ligand; 1x PBS, 10 mM DTT, arginine at different concentrations; Monolith NT.115 pico, 25°C; data from the early T-Jump period; Kd model (law of mass action)
IFNλR1^QTY–Fc = assay: as above

Sequence of CXCR2 (P25025 whole entry): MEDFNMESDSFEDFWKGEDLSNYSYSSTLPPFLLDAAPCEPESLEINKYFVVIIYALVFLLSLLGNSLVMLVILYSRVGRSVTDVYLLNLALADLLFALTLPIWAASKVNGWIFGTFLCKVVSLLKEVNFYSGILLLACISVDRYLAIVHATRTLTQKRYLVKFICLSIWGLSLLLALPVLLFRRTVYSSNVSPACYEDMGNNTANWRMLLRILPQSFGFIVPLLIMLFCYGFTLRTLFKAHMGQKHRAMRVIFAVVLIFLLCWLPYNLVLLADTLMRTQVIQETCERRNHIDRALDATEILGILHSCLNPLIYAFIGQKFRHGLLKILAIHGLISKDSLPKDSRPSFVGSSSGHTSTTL
Sequence of IFNγR1 (P15260 18-245): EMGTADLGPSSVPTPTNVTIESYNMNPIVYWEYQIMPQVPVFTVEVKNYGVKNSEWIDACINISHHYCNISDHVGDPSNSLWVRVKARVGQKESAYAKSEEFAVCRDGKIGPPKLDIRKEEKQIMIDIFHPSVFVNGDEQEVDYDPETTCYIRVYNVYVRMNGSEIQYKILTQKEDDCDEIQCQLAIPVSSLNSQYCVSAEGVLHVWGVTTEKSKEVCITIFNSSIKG
Sequence of IL29 (Q8IU54 20-200): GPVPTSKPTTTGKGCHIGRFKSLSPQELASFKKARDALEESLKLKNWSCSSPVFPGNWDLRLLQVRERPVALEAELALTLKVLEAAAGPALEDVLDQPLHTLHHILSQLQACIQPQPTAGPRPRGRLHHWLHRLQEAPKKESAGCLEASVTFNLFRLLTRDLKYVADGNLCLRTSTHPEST
Sequence of IFNγ (P01579 24-161): as the sequence (P01579 24-161) above
Sequence of CCL25 (Homo sapiens) (O15444 24-150): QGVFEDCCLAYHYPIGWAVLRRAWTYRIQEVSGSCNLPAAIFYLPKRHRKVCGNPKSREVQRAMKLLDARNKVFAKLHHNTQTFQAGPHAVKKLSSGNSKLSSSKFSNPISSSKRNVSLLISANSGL
Sequence of CCL25 (O15444 24-150): as above
Sequence of IL10 (P22301 19-178): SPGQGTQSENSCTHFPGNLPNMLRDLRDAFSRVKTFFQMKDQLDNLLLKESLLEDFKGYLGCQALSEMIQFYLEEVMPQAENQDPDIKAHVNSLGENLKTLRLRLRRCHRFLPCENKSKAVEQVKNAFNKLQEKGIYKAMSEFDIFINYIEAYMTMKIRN
Sequence of IL4Rα (P24394 26-232): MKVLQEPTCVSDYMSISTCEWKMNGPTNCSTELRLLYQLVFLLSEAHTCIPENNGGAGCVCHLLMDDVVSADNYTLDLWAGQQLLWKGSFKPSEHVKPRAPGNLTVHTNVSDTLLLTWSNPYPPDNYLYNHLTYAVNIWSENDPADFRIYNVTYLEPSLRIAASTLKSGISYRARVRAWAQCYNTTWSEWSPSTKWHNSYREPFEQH

CCL25 (from UniProt O15444 24-150) (ligand)
Kd (CCR9^QTY–Fc): 37.2 nM

CCR9 (from UniProt P51686)
Kd (CCL25 (Homo sapiens)): 8 nM

CXCR2 (from UniProt P25025)
Kd (IL8 (Homo sapiens)): 70 nM | Kd [1]: 8.5 nM | Kd [2]: 0.5 nM

IFNγ (from UniProt P01579 24-161) (ligand)
Kd (IFNγR1^QTY–Fc): 6.2 nM

IFNγR1 (from UniProt P15260)
Kd (IFNγ (Homo sapiens) [3]): 1.7 nM | Kd (IFNγ (Homo sapiens) [4]): 30.8 nM

IL4Rα (from UniProt P24394)
Kd (IL4 (Homo sapiens)): 1 nM

IL10 (from UniProt P22301 19-178) (ligand)
Kd (IL10Rα^QTY–Fc): 1.6 nM

IL29 (from UniProt Q8IU54 20-200) (ligand)
Kd (IFNλR1^QTY–Fc): 11.5 nM
